The values that follow come from patent US20200216495A1 (ADRX, published 2020).

Several values for one entry are separate records, joined by “and”; a condition that tells them apart may be missing. Equal entries are not always repeated. Square brackets hold non-standard residues; d marks the D form. Ends that are not written are not given here. dCit = NC(=O)NCCC[C@@H](N)C(=O)O

The assay concerns the target Tau40 P301L protein (human). As to the kind of experiment: cell-based or functional assay.
[dE][dW][dR][dL][dK][dV][dR][dW] [ewrlkvrw (PEPTIDE ID NO: 229)]: the “IC50, Tau40 assay (ThT)” value came to 0.9 µM. Then [dW][dR][dF][dK][dF][dR][dW] [wrfkfrw (PEPTIDE ID NO: 215)], with 0.82 µM; and [dL][dK][dI][dR][dI][dF][dY][dH] [lkirifyh (PEPTIDE ID NO: 214)], with 0.82 µM. Under [dW][dR][dL][dR][dI][dH][dW] [wrlrihw (PEPTIDE ID NO: 101)] stands 0.31 µM and 0.32 µM.

As to [dW][dR][dM][dR][dI][dH][dW] [wrmrihw (PEPTIDE ID NO: 246)], the “IC50, Tau40 assay (ThT)” value came to 1.04 µM. Then [dH][dR][dL][dK][dV][dR][dW][dH] [hrlkvrwh (PEPTIDE ID NO: 213)], with 0.82 µM. For [dW][dR][dL][dR][dV][dR][dW][dW] [wrlrvrww (PEPTIDE ID NO: 238)], the “IC50, Tau40 assay (ThT)” value amounted to 1 µM.

As for [dW][dR][dL][dK][dE][dR][dW][dW] [wrlkerww (PEPTIDE ID NO: 241)], the “IC50, Tau40 assay (ThT)” value was 1.01 µM. Under [dW][dR][dL][dR][dI][dH][dM] [wrlrihm (PEPTIDE ID NO: 453)] stands 0.58 µM. Then [dK][dL][dK][dL][dR][dW][dW] [klklrww (PEPTIDE ID NO: 448)], with 0.92 µM; and [dW][dR][dL][dK][dV][dR][dW][dR] [wrlkvrwr (PEPTIDE ID NO: 230)], with 0.91 µM; and [dW][dR][dL][dK][dV][dR][dW][dH] [wrlkvrwh (PEPTIDE ID NO: 222)], with 0.86 µM. Then [dL][dQ][dF][dD][dL][dQ][dY][dF] [lqfdlqyf (PEPTIDE ID NO: 142)], with 0.93 µM and 0.98 µM; and [dT][dL][dK][dI][dR][dI][dH][dY] [tlkirihy (PEPTIDE ID NO: 235)], with 0.94 µM; and [dL][dR][dL][dK][dV][dR][dW][dL] [lrlkvrwl (PEPTIDE ID NO: 210)], with 0.81 µM.

Take [dR][dR][dL][dK][dV][dR][dW][dW] [rrlkvrww (PEPTIDE ID NO: 225)]: the “IC50, Tau40 assay (ThT)” value came out at 0.88 µM.

Take [dL][dK][dI][dR][dI][dCit][dY] [lkirizy (PEPTIDE ID NO: 244)]: the “IC50, Tau40 assay (ThT)” value worked out at 1.03 µM. Turning to [dW][dR][dL][dR][dI][dM][dW] [wrlrimw (PEPTIDE ID NO: 452)], the “IC50, Tau40 assay (ThT)” value was determined as 0.54 µM.

As for [dF][dL][dK][dI][dR][dI][dH][dY] [flkirihy (PEPTIDE ID NO: 247)], the “IC50, Tau40 assay (ThT)” value was 1.04 µM. Then G[dW][dR][dL][dK][dV][dR][dW] (also: all residues D-form, Gly1 is achiral) [gwrlkvrw (PEPTIDE ID NO: 209)], with 0.79 µM; and [dK][dL][dK][dI][dR][dI][dH][dY] [klkirihy (PEPTIDE ID NO: 243)], with 1.01 µM. Regarding [dW][dR][dF][dK][dV][dR][dW] [wrfkvrw (PEPTIDE ID NO: 226)], the “IC50, Tau40 assay (ThT)” value worked out at 0.88 µM.

As for [dF][dR][dL][dK][dV][dR][dW][dW] [frlkvrww (PEPTIDE ID NO: 231)], the “IC50, Tau40 assay (ThT)” value was 0.91 µM.

For [dW][dW][dR][dL][dK][dV][dR][dW] [wwrlkvrw (PEPTIDE ID NO: 234)], the “IC50, Tau40 assay (ThT)” value is 0.93 µM. Under [dW][dR][dL][dK][dV][dR][dW][dF] [wrlkvrwf (PEPTIDE ID NO: 218)] stands 0.84 µM; under [dL][dK][dI][dR][dI][dH][dY][dL] [lkirihyl (PEPTIDE ID NO: 193)], 0.65 µM. Then [dW][dK][dL][dK][dL][dW][dW][dW] [wklklwww (PEPTIDE ID NO: 14)], with 0.94 µM. Then [dW][dW][dL][dR][dI][dH][dW] [wwlrihw (PEPTIDE ID NO: 425)], with 0.94 µM. With [dM][dR][dL][dR][dI][dH][dW] [mrlrihw (PEPTIDE ID NO: 242)], the “IC50, Tau40 assay (ThT)” value came out at 1.01 µM.

In the case of G[dL][dK][dI][dR][dI][dH][dY] [glkirihy (PEPTIDE ID NO: 236)], the “IC50, Tau40 assay (ThT)” value was determined as 0.96 µM. As for [dL][dR][dL][dK][dV][dR][dW][dW] [lrlkvrww (PEPTIDE ID NO: 221)], the “IC50, Tau40 assay (ThT)” value is 0.85 µM. Then [dR][dK][dI][dR][dI][dH][dY][dH] [rkirihyh (PEPTIDE ID NO: 227)], with 0.89 µM; and [dF][dK][dI][dR][dI][dH][dY][dF] [fkirihyf (PEPTIDE ID NO: 232)], with 0.91 µM; and [dL][dK][dL][dH][dL][dH][dF][dH] [lklhlhfh (PEPTIDE ID NO: 434)], with 1.01 µM. Then [dW][dR][dR][dK][dV][dR][dW][dW] [wrrkvrww (PEPTIDE ID NO: 220)], with 0.85 µM; and [dL][dR][dI][dR][dL][dH][dY][dH] [lrirlhyh (PEPTIDE ID NO: 420)], with 0.97 µM. For the molecule [dL][dK][dI][dR][dI][dH][dY] [lkirihy (PEPTIDE ID NO: 245)], the “IC50, Tau40 assay (ThT)” value came out at 1.04 µM. Then [dL][dK][dI][dR][dI][dR][dF][dH] [lkirirfh (PEPTIDE ID NO: 414)], with 0.9 µM; and [dL][dK][dI][dL][dI][dH][dY][dH] [lkilihyh (PEPTIDE ID NO: 223)], with 0.86 µM. As to [dL][dK][dI][dK][dI][dH][dY] [lkikihy (PEPTIDE ID NO: 233)], the “IC50, Tau40 assay (ThT)” value stood at 0.93 µM.

Consider [dR][dL][dK][dI][dR][dI][dH][dY] [rlkirihy (PEPTIDE ID NO: 451)], for which the “IC50, Tau40 assay (ThT)” value was determined as 0.51 µM. Under [dL][dK][dI][dR][dF][dH][dY] [lkirfhy (PEPTIDE ID NO: 211)] stands 0.81 µM; under [dL][dK][dI][dR][dI][dH][dL][dH] [lkirihlh (PEPTIDE ID NO: 240)], 1 µM.

Take [dR][dL][dK][dV][dR][dW][dW][dW] [rlkvrwww (PEPTIDE ID NO: 224)]: the “IC50, Tau40 assay (ThT)” value was found to be 0.87 µM. Under [dL][dR][dI][dR][dI][dH][dY][dH] [lririhyh (PEPTIDE ID NO: 239)] stands 1 µM. Then [dF][dK][dL][dK][dL][dR][dW] [fklklrw (PEPTIDE ID NO: 413)], with 1.05 µM; and [dF][dK][dL][dK][dL][dR][dW][dF] [fklklrwf (PEPTIDE ID NO: 57)], with 0.83 µM; and [dL][dK][dI][dR][dI][dM][dY] [lkirimy (PEPTIDE ID NO: 219)], with 0.84 µM. Under [dL][dK][dI][dW][dI][dY][dY][dH] [lkiwiyyh (PEPTIDE ID NO: 237)] stands 0.97 µM. Regarding [dL][dR][dI][dK][dI][dR][dF][dH] [lrikirfh (PEPTIDE ID NO: 421)], the “IC50, Tau40 assay (ThT)” value is 0.97 µM.

As to [dF][dK][dL][dR][dL][dR][dH][dW] [fklrlrhw (PEPTIDE ID NO: 123)], the “IC50, Tau40 assay (ThT)” value was determined as 1.07 µM. As to [dL][dK][dF][dR][dI][dH][dY] [lkfrihy (PEPTIDE ID NO: 216)], the “IC50, Tau40 assay (ThT)” value is 0.83 µM. Under [dR][dW][dR][dL][dK][dV][dR][dW] [rwrlkvrw (PEPTIDE ID NO: 217)] stands 0.83 µM. Under [dL][dK][dI][dW][dI][dK][dY][dH] [lkiwikyh (PEPTIDE ID NO: 212)] stands 0.81 µM; under [dF][dK][dL][dK][dI][dK][dW] [fklkikw (PEPTIDE ID NO: 132)], 1.08 µM and 1.1 µM. Turning to [dL][dK][dL][dR][dI][dR][dH][dH] [lklrirhh (PEPTIDE ID NO: 415)], the “IC50, Tau40 assay (ThT)” value was 1.01 µM.
